According to patent US20200330514A1 (TORQUE THERAPEUTICS, published 2020):

T1: human CD45 receptor on the surface of human T cells (human, UniProt P08575 26-1306)
T1 construct: whole, on cells; also called cellular CD45; leukocyte common antigen
T1 sequence (looked up): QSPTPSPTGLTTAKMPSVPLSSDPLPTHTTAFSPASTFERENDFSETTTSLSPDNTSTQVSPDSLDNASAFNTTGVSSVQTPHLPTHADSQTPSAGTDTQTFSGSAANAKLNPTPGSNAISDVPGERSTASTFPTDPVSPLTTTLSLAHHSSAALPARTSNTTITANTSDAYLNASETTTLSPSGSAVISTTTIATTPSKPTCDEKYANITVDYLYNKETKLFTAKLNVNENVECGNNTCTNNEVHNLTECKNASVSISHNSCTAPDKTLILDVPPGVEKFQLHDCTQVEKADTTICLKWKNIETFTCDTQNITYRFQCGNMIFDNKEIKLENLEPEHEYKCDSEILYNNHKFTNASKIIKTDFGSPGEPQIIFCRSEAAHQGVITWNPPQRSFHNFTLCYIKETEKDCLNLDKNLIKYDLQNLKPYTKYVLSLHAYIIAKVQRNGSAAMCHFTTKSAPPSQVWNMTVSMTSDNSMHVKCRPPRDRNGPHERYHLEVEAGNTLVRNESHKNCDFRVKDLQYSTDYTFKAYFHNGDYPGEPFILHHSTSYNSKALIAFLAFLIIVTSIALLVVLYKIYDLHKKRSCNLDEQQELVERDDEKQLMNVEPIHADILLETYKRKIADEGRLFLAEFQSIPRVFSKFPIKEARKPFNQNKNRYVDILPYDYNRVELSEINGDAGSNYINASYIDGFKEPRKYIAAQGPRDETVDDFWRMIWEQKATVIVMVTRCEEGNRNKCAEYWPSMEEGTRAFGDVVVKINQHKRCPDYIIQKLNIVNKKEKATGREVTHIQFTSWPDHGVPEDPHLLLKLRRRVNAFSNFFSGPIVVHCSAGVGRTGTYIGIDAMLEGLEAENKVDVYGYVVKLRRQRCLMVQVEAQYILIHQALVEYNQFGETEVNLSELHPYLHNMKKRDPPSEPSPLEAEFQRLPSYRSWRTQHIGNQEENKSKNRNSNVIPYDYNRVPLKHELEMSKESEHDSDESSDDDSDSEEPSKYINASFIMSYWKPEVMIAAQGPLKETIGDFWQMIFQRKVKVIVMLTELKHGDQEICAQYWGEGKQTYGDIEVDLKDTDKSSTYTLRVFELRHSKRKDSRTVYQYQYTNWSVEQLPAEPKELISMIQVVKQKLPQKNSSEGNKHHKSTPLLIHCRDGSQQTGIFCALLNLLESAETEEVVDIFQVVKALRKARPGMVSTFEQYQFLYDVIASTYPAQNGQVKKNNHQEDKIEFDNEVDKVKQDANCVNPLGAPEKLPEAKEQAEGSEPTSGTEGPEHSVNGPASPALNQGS

T2: mouse CD45 on the surface of mouse T cells (mouse, UniProt P06800 26-1293)
T2 construct: whole, on cells
T2 sequence (looked up): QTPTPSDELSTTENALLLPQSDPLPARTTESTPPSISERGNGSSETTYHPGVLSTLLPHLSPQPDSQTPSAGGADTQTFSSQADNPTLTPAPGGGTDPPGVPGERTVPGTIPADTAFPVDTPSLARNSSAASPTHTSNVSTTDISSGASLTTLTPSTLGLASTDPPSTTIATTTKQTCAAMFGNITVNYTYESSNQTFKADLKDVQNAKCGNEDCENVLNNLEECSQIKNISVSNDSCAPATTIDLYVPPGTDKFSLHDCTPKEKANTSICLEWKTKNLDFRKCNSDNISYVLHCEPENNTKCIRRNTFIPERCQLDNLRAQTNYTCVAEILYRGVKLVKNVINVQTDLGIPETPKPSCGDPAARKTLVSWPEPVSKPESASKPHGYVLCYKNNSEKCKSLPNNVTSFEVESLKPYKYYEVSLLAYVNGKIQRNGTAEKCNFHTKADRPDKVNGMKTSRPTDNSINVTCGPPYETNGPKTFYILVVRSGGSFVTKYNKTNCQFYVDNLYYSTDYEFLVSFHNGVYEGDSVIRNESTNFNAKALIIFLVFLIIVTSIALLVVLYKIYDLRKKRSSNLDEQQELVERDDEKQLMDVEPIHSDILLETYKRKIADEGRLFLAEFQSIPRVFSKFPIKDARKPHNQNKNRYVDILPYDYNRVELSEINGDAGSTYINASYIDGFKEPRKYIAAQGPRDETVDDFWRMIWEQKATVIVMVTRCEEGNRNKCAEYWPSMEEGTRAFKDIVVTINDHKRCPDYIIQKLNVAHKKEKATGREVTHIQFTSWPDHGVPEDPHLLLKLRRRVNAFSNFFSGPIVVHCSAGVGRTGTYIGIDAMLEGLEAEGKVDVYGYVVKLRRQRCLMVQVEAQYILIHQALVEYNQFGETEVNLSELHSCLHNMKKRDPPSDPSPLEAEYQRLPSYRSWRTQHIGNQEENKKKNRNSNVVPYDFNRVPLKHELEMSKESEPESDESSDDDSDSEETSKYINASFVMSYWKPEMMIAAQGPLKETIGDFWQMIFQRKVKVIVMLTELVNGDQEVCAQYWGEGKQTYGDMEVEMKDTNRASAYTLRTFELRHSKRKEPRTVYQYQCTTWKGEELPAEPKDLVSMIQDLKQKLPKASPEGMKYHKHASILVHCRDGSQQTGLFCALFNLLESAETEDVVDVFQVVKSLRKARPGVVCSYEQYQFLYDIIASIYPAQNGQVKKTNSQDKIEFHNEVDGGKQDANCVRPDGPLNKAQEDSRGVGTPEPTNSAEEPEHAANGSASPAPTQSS


How the values were obtained:
[1] = biological target: T1, human CD45 receptor on the surface of …; assay: flow cytometry titration on activated primary human CD8 T cells, anti-human IgG-Fc detection
Excerpt: To evaluate whether anti-CD45 antibodies other than BC8 are capable of generating IFMs with improved potency, we evaluated two additional anti-CD45 monoclonal antibodies (mAb clones 9.4 and 4B2). We first evaluated the binding affinities of chimeric IgG forms of these antibodies to CD45 expressed on the surface of activated CD8 T cells. The chimeric antibodies each comprise mouse variable domains and human constant region (human constant kappa domain and human IgG4 containing an S228P mutation to stabilize the IgG4 hinge region). For comparison with previous results we evaluated these antibodies alongside chBC8, hBC8(23), and a non-binding variant hBC8-null. The humanized BC8 antibody consists of variable domains containing CDR regions grafted from BC8, and the hBC8-null variant contains an SGGGS substitution in the heavy-chain CDR3, which ablates binding to CD45 (FIG. 10A). […]
Cell binding assay. […] Cells were washed with MACS buffer (PBS, 2% FBS, 1 mM EDTA) three times, and antibody binding was detected using a PE-conjugated anti-human IgG-Fc antibody (BioLegend, cat. no. HP6017) for 20 min. at 4° C. […]

[2] = biological target: T2, mouse CD45 on the surface of mouse T …; assay: pulse incubation at 125 nM on activated mouse CD8 T cells, anti-mouse IL-12 staining by flow cytometry (FIG. 32)
Experimental: We evaluated the ability of tethered fusions comprising an antibody specific for mouse CD45 and the mouse scIL-12p70 cytokine to facilitate loading and persistence of IL-12 on the surface of mouse T cells. Prior to incubation with the mouse IL12-TFs, mouse CD8 T cells were isolated from Pmel mice, activated for two days using antibodies against mouse CD3 and CD28 receptors, and then expanded in the presence of IL-21 for two days. Briefly, isolated CD8 T cells were incubated in full medium (containing RPMI 1640, 10% FBS, insulin-transferrin-selenium, penicillin/streptomycin, and 50 uM beta-mercaptoethanol) in Nunc HighBind plates that were previously coated with antibodies against mouse CD3 and CD28 receptors; the CD3 and CD28 antibodies were coated at concentrations of 0.5 ug/mL and 5 ug/mL, respectively. After approximately 24 hr incubation on the antibody-coated plates IL-2 and IL-7 were added to a final concentrations of 20 ng/mL and 0.5 ng/mL respectively. After a second day of incubation, cells were recovered from the antibody-coated plates and diluted to a density of approximately 200,000 cells/mL into medium containing IL-21 at a final concentration of 20 ng/mL. […] On Days 0, 1, 3, and 5 after the pulse incubation cells were immunostained using antibodies specific to mouse IL-12 and analyzed on a FACSCelesta using Diva Software; data was analyzed using FlowJo. […]

| Binder | binding result [1] | binding result [2] |
| --- | --- | --- |
| hBC8-null humanized BC8 antibody with SGGGS substitution in CDR-H3 (IgG form) (antibody, V domains shown, constant regions of the tested antibody not spelled out; also called hBC8(23)-null) VH: EVQLVESGGGLVQPGGSLRLSCAASGFDFSRYWMSWVRQAPGKGLEWIGEINPTSSTINFADSVKGRFTISRDNAKNSLYLQMNSVRDEDTAVYYCARGSGGGSGDAMDYWGQGTLVTVSS VL: EIVLTQSPATLSLSLGERATISCRASKSVSTSGYSYLHWYQQKPGQAPKLLIYLASNRATGVPARFSGSGPGTDFTLTISSLEPEDFATYYCQHSRELPFTFGQGTKLEIK | no binding (tested: 500 nM) |  |
| chM1Fab-M1scFv-scIL-12p70 (other) heavy: QVNLLQSGAALVKPGASVKLSCKASGYTFTDYYIHWVKQSHGKSLEWVAYINPDRDYTNYNEKFKSKATLTVDKSTNTAYMELSRLTSEDSATFYCTRRLYDGAYYYSWFAYWGQGTLVTVSSASTKGPSVFPLAPSSKSTSGGTAALGCLVKDYFPEPVTVSWNSGALTSGVHTFPAVLQSSGLYSLSSVVTVPSSSLGTQTYICNVNHKPSNTKVDKKVEPKSCGGGGSGGGGSGGGGSQVNLLQSGAALVKPGASVKLSCKASGYTFTDYYIHWVKQSHGKSLEWVAYINPDRDYTNYNEKFKSKATLTVDKSTNTAYMELSRLTSEDSATFYCTRRLYDGAYYYSWFAYWGQGTLVTVSSGGGGSGGGGSGGGGSGGGGSDIQMTQSPHSLSASLGETVSIECLASEGISNYLAWYQQKPGKSPQLLIYYGSRLQDGVPSRFSGSGSGTQYSLRITNMQPEDEGVYYCQQGYKYPYTFGAGTKLELK light: DIQMTQSPHSLSASLGETVSIECLASEGISNYLAWYQQKPGKSPQLLIYYGSRLQDGVPSRFSGSGSGTQYSLRITNMQPEDEGVYYCQQGYKYPYTFGAGTKLELKRTVAAPSVFIFPPSDEQLKSGTASVVCLLNNFYPREAKVQWKVDNALQSGNSQESVTEQDSKDSTYSLSSTLTLSKADYEKHKVYACEVTHQGLSSPVTKSFNRGECGGGGSGGGGSGGGGSMWELEKDVYVVEVDWTPDAPGETVNLTCDTPEEDDITWTSDQRHGVIGSGKTLTITVKEFLDAGQYTCHKGGETLSHSHLLLHKKENGIWSTEILKNFKNKTFLKCEAPNYSGRFTCSWLVQRNMDLKFNIKSSSSSPDSRAVTCGMASLSAEKVTLDQRDYEKYSVSCQEDVTCPTAEETLPIELALEARQQNKYENYSTSFFIRDIIKPDPPKNLQMKPLKNSQVEVSWEYPDSWSTPHSYFSLKFFVRIQRKKEKMKETEEGCNQKGAFLVEKTSTEVQCKGGNVCVQAQDRYYNSSCSKWACVPCRVRSGGGGSGGGGSGGGGSGGGGSRVIPVSGPARCLSQSRNLLKTTDDMVKTAREKLKHYSCTAEDIDHEDITRDQTSTLKTCLPLELHKNESCLATRETSSTTRGSCLPPQKTSLMMTLCLGSIYEDLKMYQTEFQAINAALQNHNHQQIILDKGMLVAIDELMQSLNHNGETLRQKPPVGEADPYRVKMKLCILLHAFSTRVVTINRVMGYLSSA |  | binds |
